Results on seven molecules are retold here after patent US20200392251A1 (University of California, published 2020).

Residue numbers refer to the chain shown, from its start.

Experiment [1] addresses human MMP-12 catalytic domain mutant D4 (cdMMP-12 D4) (human). The experiment can be described thus: cell-based or functional assay.
In experiment [2] the target is T1, human MMP-12 catalytic domain wild type (cdMMP-12 wt) (human, UniProt P39900 106-263). The experiment can be described thus: cell-based or functional assay.
Experiment [3] concerns the target T2, human MMP-12 catalytic domain mutant D4 (cdMMP-12 D4) (human).
T2 construct: PROSS-designed expression-optimised mutant; Cytoplasmically expressed in E. coli, purified on Ni-NTA; biotinylated for ELISA/BLI; also called cdMMP-12 mutant D4; modified D4
The experiment in a line: bio-layer interferometry (BLItz); biotinylated cdMMP-12 on streptavidin sensor, 50/100/200 nM Fab.
Protocol: (§1) On streptavidin coated ELISA plates, 5 μg/mL biotinylated cdMMPs were immobilized and incubated with two-fold serially diluted purified Fabs. Bound Fabs were detected with anti-Fab-HRP (Sigma-Aldrich), and signals were developed by TMB substrate (Thermo Scientific) and measured using a microplate reader (BioTek). […] Bound Fabs were detected using anti-Fab-HRP. For bio-layer interferometry (using ForteBio BLItz), biotinylated cdMMP-12 D4/wt was loaded onto streptavidin biosensors. After washing to establish baselines, 50, 100, or 200 nM of Fabs were associated with immobilized cdMMP-12 D4/wt for 200 sec, then dissociated into 50 mM HEPES, 150 mM NaCl pH 7.5 for 120 sec. Averages of measured kₒₙ and koff values were determined for KD calculations.

The target of experiment [4] is T1, human MMP-12 catalytic domain wild type …. The experiment is described as above.
Protocol: as §1
Experiment [5] shares this target. The experiment can be described thus: bio-layer interferometry (ForteBio BLItz), biotinylated cdMMP-12 wt on streptavidin biosensor, Fab at 50, 100 and 200 nM [panel B, LH6].
Protocol: as §1
Experiment [6] addresses T3, catalytic domain of human MMP-14 (cdMMP-14) (human, UniProt P50281 114-320).
T3 construct: range 114-320; Produced active in E. coli periplasm; biotinylated for BLI/ELISA
The experiment in a line: FRET peptide inhibition assay.
Protocol: (§2) To calculate inhibition constants (KIs), data were fit with the equations for slow tight-binding inhibitors. The inhibition type of the Fabs was determined using the initial velocities of cdMMP-12 D4 as a function of substrate concentration (250-2000 nM) at various Fab concentrations (31-500 nM). The values of Vₘₐₓ and Kₘ were derived from linearization in accordance with the Lineweaver-Burk equation.

Experiment [7] has as its target T3, catalytic domain of human MMP-14 …. The experiment in a line: bio-layer interferometry; reference cdMMP-12 wt.
For experiment [8] the target is unchanged. The experiment can be described thus: FRET peptide inhibition assay; reference cdMMP-12 mutant D4.
Protocol: as §2
For experiment [9], the target named is T2, human MMP-12 catalytic domain mutant D4 …. The experiment can be described thus: bio-layer interferometry (ForteBio BLItz), biotinylated cdMMP-12 D4 on streptavidin biosensor, Fab at 50, 100 and 200 nM [panel A, LH6].
Protocol: as §1
Experiment [10] shares this target. The experiment in a line: FRET peptide (M-2350) inhibition assay.
Protocol: as §2
Experiment [11] shares this target. The experiment in a line: direct ELISA; biotinylated cdMMP on streptavidin plate, Fab titrated, anti-Fab-HRP.
Protocol: as §1
Experiment [12] deals with T1, human MMP-12 catalytic domain wild type …. The description is as above.
Protocol: as §1
Experiment [13] deals with T3, catalytic domain of human MMP-14 …. The experiment can be described thus: bio-layer interferometry.
For experiment [14] the target is unchanged. The experiment in a line: biolayer interferometry; biotinylated protease on streptavidin sensor, Fab in solution.
Protocol: (§3) Binding kinetics of produced antibodies towards associated protease targets were analyzed by using biolayer interferometry (ForteBio). For Fabs, biotinylated proteases were immobilized on streptavidin biosensors, and Fab binding to the sensors in absence of protease was monitored as backgrounds.
Experiment [15] shares this target. The experiment in a line: FRET peptide inhibition assay; KI=IC50/(S/Km+1).
Protocol: (§4) For inhibition tests, 1 μM Fabs were 2-fold serially diluted into protease specific assay buffer and incubated with 1-10 nM proteases for 30 min at room temperature. […] Inhibition percentages at given concentrations were calculated by comparing the initial reaction rates in the presence or absence of inhibitor. […] Vₘₐₓ and Kₘ at various Fab concentrations were measured to determine the inhibition type. FRET inhibition assays were also used for selectivity tests of isolated Fabs with the relevant proteases.
The target is the same in experiment [16]. The experiment can be described thus: bio-layer interferometry (ForteBio), biotinylated protease on streptavidin biosensor, Fab in solution [panel 2B4].
Protocol: as §3
For experiment [17] the target is unchanged. The experiment can be described thus: enzyme inhibition assay with FRET peptide substrate (M-2350), Fab titrated on cdMMP-14 [panel 2B4].
Protocol: as §4
Experiment [18] addresses human β-secretase 1 (BACE1), extracellular/catalytic domain (human, UniProt P56817 46-457, limits assumed). The experiment can be described thus: cell-based or functional assay.
Experiment [19] addresses T2, human MMP-12 catalytic domain mutant D4 …. The experiment in a line: bio-layer interferometry (ForteBio BLItz), biotinylated cdMMP-12 D4 on streptavidin biosensor, Fab at 50, 100 and 200 nM [panel A, LH11].
Protocol: as §1
Experiment [20] deals with T1, human MMP-12 catalytic domain wild type …. The experiment can be described thus: bio-layer interferometry (ForteBio BLItz), biotinylated cdMMP-12 wt on streptavidin biosensor, Fab at 50, 100 and 200 nM [panel B, LH11].
Protocol: as §1
Experiment [21] concerns the target T3, catalytic domain of human MMP-14 …. The experiment can be described thus: enzyme inhibition assay with FRET peptide substrate (M-2350), Fab titrated on cdMMP-14 [panel 1A5].
Protocol: as §4
The target is the same in experiment [22]. The experiment can be described thus: bio-layer interferometry (ForteBio), biotinylated protease on streptavidin biosensor, Fab in solution [panel 1A5].
Protocol: as §3
For experiment [23] the target is unchanged. The experiment in a line: enzyme inhibition assay with FRET peptide substrate (M-2350), Fab titrated on cdMMP-14 [panel 2B12].
Protocol: as §4
Experiment [24] has the same target. The experiment in a line: bio-layer interferometry (ForteBio), biotinylated protease on streptavidin biosensor, Fab in solution [panel 2B12].
Protocol: as §3
Experiment [25] concerns the target T2, human MMP-12 catalytic domain mutant D4 …. The experiment can be described thus: bio-layer interferometry (ForteBio BLItz), biotinylated cdMMP-12 D4 on streptavidin biosensor, Fab at 50, 100 and 200 nM [panel A, LG4].
Protocol: as §1
In experiment [26] the target is T1, human MMP-12 catalytic domain wild type …. The experiment in a line: bio-layer interferometry (ForteBio BLItz), biotinylated cdMMP-12 wt on streptavidin biosensor, Fab at 50, 100 and 200 nM [panel B, LG4].
Protocol: as §1

T2 sequence (chain, as listed by the source mutant limits assumed): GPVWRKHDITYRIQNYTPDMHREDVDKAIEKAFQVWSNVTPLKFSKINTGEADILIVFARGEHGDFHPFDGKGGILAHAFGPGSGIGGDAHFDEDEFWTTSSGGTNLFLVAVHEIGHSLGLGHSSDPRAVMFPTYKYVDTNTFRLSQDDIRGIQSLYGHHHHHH
T1 sequence (P39900 other isoform, or with tags, fused parts or gaps limits assumed): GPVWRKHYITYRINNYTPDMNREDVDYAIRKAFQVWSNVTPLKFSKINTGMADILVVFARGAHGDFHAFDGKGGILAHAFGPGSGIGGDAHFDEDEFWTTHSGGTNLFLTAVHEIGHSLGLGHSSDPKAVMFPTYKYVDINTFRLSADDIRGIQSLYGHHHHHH
human β-secretase 1 (BACE1), extracellular/catalytic domain, sequence (P56817 46-457 limits assumed, form in doubt): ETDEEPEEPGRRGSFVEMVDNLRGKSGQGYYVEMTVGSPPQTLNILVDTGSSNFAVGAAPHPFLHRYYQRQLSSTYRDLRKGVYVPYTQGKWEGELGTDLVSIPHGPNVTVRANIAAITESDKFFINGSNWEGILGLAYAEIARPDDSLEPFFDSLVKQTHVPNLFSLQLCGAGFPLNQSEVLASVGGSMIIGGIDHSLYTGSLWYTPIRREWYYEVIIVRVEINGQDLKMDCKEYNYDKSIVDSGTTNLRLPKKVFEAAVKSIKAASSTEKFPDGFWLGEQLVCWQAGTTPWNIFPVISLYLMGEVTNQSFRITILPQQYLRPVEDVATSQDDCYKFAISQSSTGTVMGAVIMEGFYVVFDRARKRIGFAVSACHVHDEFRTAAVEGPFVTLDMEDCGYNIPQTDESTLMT

B1: anti-MMP-12 Fab LH6 (Fab, V domains shown)
VH: EVQLVESGGGLVQPGGSLRLSCAASGFNLSYSYMHWVRQAPGKGLEWVASIYPSYGSTYYADSVKGRFTISADTSKNTAYLQMNSLRAEDTAVYYCARDLEESLPKRARTAVSKELESVPYVMDYWGQGTLVTVSS
VL: DIQMTQSPSSLSASVGDRVTITCRASQSVSSAVAWYQQKPGKAPKLLIYSASSLYSGVPSRFSGSRSGTDFTLTISSLQPEDFATYYCQQSSHYASPPITFGQGTKVEIKR
notes: Fab from a synthetic human Fab library with long CDR-H3s, produced in E. coli periplasm; also called Clone LH6
As for B1, the “Inhibition, Elastin-FITC IC50” value in experiment [1] was 0.061 µM; in [2] it was 1.7 µM. The Kd in experiment [3] was determined as 0.51 µM; in experiment [4], 0.43 µM; in experiment [13], 0.48 µM. The koff in experiment [5] is 0.0065 s⁻¹; in experiment [9], 0.011 s⁻¹. For the same molecule, the results for the kon in experiment [5] and in experiment [9] were 15000 M⁻¹ s⁻¹ and 22000 M⁻¹ s⁻¹, respectively. In addition, the inhibition constant Ki worked out at 4.7 µM in experiment [6] and 0.091 µM in [10]. Moreover, the “fold (KD compared with cdMMP-12 wt)” value in experiment [7] came out at 1.1 fold. In [8], the “fold (KI compared with cdMMP-12 mutant D4)” value was found to be 52 fold. The EC50 in experiment [11] was 0.29 µM; in [12] it was about 1 µM.

B2: anti-MMP-14 Fab 2B4 (Fab, V domains shown)
VH: EVQLVESGGGLVQPGGSLRLSCAASGFNLYSSYIHWVRQAPGKGLEWVASIYSSYSSTYYADSVKGRFTISADTSKNTAYLQMNSLRAEDTAVYYCARSDSAVYSVRRMGSSGLAAYAMDYWGQGTLVTVSS
VL: B1 VL with S91Y, H93Y, Y94G, A95Y, P97S, P98L
notes: Fab from a synthetic human Fab library, produced in E. coli periplasm; also called Clone 2B4
Consider B2, for which the Kd in [14] stood at 0.066 µM. This molecule displayed a Ki in experiment [15] of 0.098 µM. In [16], the koff is 0.00079 s⁻¹ and the kon amounted to 12000 M⁻¹ s⁻¹. In [17], it took 0.11 µM to reach half-maximal inhibition (IC50).

B3: anti-BACE1 IgG B2B2 (antibody, V domains shown)
VH: EVQLVESGGGLVQPGGSLRLSCAASGFNISSYYMHWVRQAPGKGLEWVASIYSSYGYTYYADSVKGRFTISADTSKNTAYLQMNSLRAEDTAVYYCARYWGYYAWFGSHPWAYGAFDYWGQGTLVTVSS
VL: DIQMTQSPSSLSASVGDRVTITCRASQSVSSAVAWYQQKPGKAPKLLIYSASSLYSGVPSRFSGSRSGTDFTLTISSLQPEDFATYYCQQYGYYLITFGQGTKVEIKR
Regarding B3, the “apparent IC50 of Aβ40 production, HEK293 cells expressing APP” value in experiment [18] came out at 0.33 µM.

B4: anti-MMP-12 Fab LH11 (Fab, V domains shown)
VH: EVQLVESGGGLVQPGGSLRLSCAASGFNLSYYSMHWVRQAPGKGLEWVAYIYPYYGSTYYADSVKGRFTISADTSKNTAYLQMNSLRAEDTAVYYCARFLLSIGKLFVGDGSILHVWL
VL: DIQMTQSPSSLSASVGDRVTITCRASQSVSSAVAWYQQKPGKAPKLLIYSASSLYSGVPSRFSGSRSGTDFTLTISSLQPEDFATYYCQQAYYGYLFTFGQGTKVEIKR
notes: Fab from a synthetic human Fab library with long CDR-H3s, produced in E. coli periplasm; also called Clone LH11
Turning to B4, the “Inhibition, Elastin-FITC IC50” value in experiment [1] turned out to be 0.018 µM; in [2], 0.023 µM. Further, the “Inhibition, Fibronectin IC50” value in [2] was found to be 0.51 µM. The Kd is 0.038 µM in experiment [3], 0.075 µM in experiment [4] and 0.78 µM in [13]. Also, the Ki was determined as 9.6 µM in [6] and 0.075 µM in [10]. Moreover, the “fold (KD compared with cdMMP-12 wt)” value in [7] stood at 10 fold. In addition, the “fold (KI compared with cdMMP-12 mutant D4)” value in experiment [8] turned out to be 130 fold. For the same molecule, the figures for the EC50 in experiment [11] and in [12] were 0.1 µM and 0.14 µM, respectively. For the same molecule, the koff in experiment [19] worked out at 0.0035 s⁻¹; in experiment [20], 0.0032 s⁻¹. Further, the kon in [19] was found to be 92000 M⁻¹ s⁻¹; in experiment [20], 43000 M⁻¹ s⁻¹.

B5: anti-MMP-14 Fab 1A5 (Fab, V domains shown)
VH: EVQLVESGGGLVQPGGSLRLSCAASGFNLYYYYMHWVRQAPGKGLEWVAYIYPYSGSTYYADSVKGRFTISADTSKNTAYLQMNSLRAEDTAVYYCARLDFLMRDIYYDLGGGALGWLIKYAMDYWGQGTLVTVSS
VL: B4 VL with A91Y, Y92S, Y93G, G94P, L96P, F97I
notes: Fab from a synthetic human Fab library, produced in E. coli periplasm; also called Clone 1A5
Regarding B5, binding in [14] was characterised by a dissociation constant (Kd) of 0.057 µM. In addition, the IC50 in experiment [21] came to 0.17 µM. This molecule came in with a Ki in experiment [15] of 0.15 µM. In [22], the koff is 0.0025 s⁻¹ and the kon amounted to 44000 M⁻¹ s⁻¹.

B6: anti-MMP-14 Fab 2B12 (Fab, V domains shown)
VH: EVQLVESGGGLVQPGGSLRLSCAASGFNIYYSSMHWVRQAPGKGLEWVAYIYSSSSYTYYADSVKGRFTISADTSKNTAYLQMNSLRAEDTAVYYCARDCCSCVFSQSAGITLACVYVMDYWGQGTLVTVSS
VL: DIQMTQSPSSLSASVGDRVTITCRASQSVSSAVAWYQQKPGKAPKLLIYSASSLYSGVPSRFSGSRSGTDFTLTISSLQPEDFATYYCQQWGPHYAPITFGQGTKVEIKR
notes: Fab from a synthetic human Fab library, produced in E. coli periplasm; also called Clone 2B12
Regarding B6, 0.14 µM corresponded to half-maximal inhibition in experiment [23] (IC50). In addition, the Kd in experiment [14] worked out at 0.076 µM. Moreover, in [24], the koff is 0.0053 s⁻¹ and the kon was 70000 M⁻¹ s⁻¹. The same molecule showed a Ki in experiment [15] of 0.12 µM.

B7: anti-MMP-12 Fab LG4 (Fab, V domains shown)
VH: EVQLVESGGGLVQPGGSLRLSCAASGFNLYYSYMHWVRQAPGKGLEWVASISSYYGYTSYADSVKGRFTISADTSKNTAYLQMNSLRAEDTAVYYCARSPIVYYELFMFIDMGAQGWKYGMDYWGQGTLVTVSS
VL: DIQMTQSPSSLSASVGDRVTITCRASQSVSSAVAWYQQKPGKAPKLLIYSASSLYSGVPSRFSGSRSGTDFTLTISSLQPEDFATYYCQQTFYPFTFGQGTKVEIKR
notes: Fab from a synthetic human Fab library with long CDR-H3s, produced in E. coli periplasm; also called Clone LG4
In the case of B7, the “Inhibition, Elastin-FITC IC50” value in experiment [1] stood at 0.21 µM; in [2] it was 0.35 µM. For the same molecule, the results for the Kd in experiment [3], in [4] and in [13] were 0.037 µM, 0.071 µM and 0.64 µM, respectively. Also, the “fold (KD compared with cdMMP-12 wt)” value in experiment [7] is 9 fold. For the same molecule, the koff in [25] came to 0.0041 s⁻¹; in [26] it was 0.0038 s⁻¹. Further, the on-rate (kon) in [25] came out at 110000 M⁻¹ s⁻¹; in [26] it was 54000 M⁻¹ s⁻¹. In experiment [10], the Ki was 0.076 µM. Further, the EC50 came to 0.097 µM in experiment [11] and 0.18 µM in [12].
